Assay results: patent US20250084183A1

Target: CD99 on RD-ES and SK-ES-1 Ewing sarcoma cells (UniProt P14209)
Assay: not stated (given with the antibody's description, refers to FIG. 57)

Substance: αCD99 antibody (clone: 12E7)
- Kd: 0.01 µM
